Experiments:
[1] = test system: Nc1ccn([C@@H]2O[C@H](CO)[C@@H](O)C2(F)F)c(=O)n1; experiment: purified protein; type: biochemical, Mesomycoplasma hyorhinis; settings: PBS, 37 °C, 10 min, 4 nM enzyme, fit up to 30 mM substrate, second KM at very high concentrations not determined
[2] = test system: Nc1ccn([C@H]2C[C@H](O)[C@@H](CO)O2)c(=O)n1; experiment: purified protein; type: biochemical, Mesomycoplasma hyorhinis; settings: PBS, 37 °C, 10 min, 4 nM enzyme

Substance: CDAHyor (M. hyorhinis cytidine deaminase) (Mesomycoplasma hyorhinis MCLD)
- Km [1]: 9.064 ± 1.487 mM
- kcat [1]: 105 ± 7 s⁻¹
- kcat/Km [1]: 12000 M⁻¹ s⁻¹
- Km [2]: 2.586 ± 0.114 mM
- kcat [2]: 127 ± 2 s⁻¹
- kcat/Km [2]: 49000 M⁻¹ s⁻¹
